Results from paper PMC11922769.

Target: T1, His-MBP-SPO11;TOP6BL-Flag (Mus musculus;Mus musculus, UniProt Q9WTK8;J3QMY9 1-396;1-579, |)
T1 sequence 1: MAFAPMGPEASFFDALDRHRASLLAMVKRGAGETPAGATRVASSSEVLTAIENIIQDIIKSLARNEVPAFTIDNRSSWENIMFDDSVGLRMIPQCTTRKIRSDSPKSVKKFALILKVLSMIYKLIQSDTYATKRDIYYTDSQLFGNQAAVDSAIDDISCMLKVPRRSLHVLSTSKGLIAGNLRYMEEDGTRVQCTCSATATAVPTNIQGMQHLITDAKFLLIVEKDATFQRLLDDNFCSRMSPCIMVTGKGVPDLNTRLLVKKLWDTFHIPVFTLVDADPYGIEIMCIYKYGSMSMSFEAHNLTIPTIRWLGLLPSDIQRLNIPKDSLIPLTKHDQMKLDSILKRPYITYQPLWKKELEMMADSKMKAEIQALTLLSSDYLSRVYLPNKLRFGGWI
T1 sequence 2: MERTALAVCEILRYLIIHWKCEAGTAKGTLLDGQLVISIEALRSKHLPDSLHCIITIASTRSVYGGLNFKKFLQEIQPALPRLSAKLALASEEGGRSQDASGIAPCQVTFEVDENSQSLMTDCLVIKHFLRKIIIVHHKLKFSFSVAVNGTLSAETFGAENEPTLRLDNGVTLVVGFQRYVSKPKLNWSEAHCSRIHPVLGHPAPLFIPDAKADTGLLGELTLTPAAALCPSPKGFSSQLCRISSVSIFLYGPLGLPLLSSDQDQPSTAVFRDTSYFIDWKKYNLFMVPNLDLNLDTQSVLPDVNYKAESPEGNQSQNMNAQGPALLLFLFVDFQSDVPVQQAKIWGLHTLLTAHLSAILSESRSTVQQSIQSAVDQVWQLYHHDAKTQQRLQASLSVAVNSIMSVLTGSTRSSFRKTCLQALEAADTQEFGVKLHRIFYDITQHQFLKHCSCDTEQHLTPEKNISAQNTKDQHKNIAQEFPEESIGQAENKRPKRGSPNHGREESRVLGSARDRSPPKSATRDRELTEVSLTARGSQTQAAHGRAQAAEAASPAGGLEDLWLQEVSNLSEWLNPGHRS
Assay: EMSA

B1: 46bp dsDNA, double 5' overhang (dsDNA)
DNA 1: TAGACGTCCTCGCATCAAGATGCTGCTGCCATCTTATATTTTCTATAC
DNA 2: TAGTATAGAAAATATAAGATGGCAGCAGCATCTTGATGCGAGGACGTC
Work on B1 yielded a Kd of 20.8 ± 0.39 nM.
